According to publication PMC11703099:

Target: SET-26::GFP, excessively sumoylated (from F2 ulp-2(tv380) or ulp-2(RNAi) animals) (C. elegans) (UniProt Q9U263)
Experiment: co-IP; anti-GFP immunoprecipitation of SET-26::GFP from whole-worm lysates (1% PFA, sonicated), blot with anti-H3K4me3; WT and F2 ulp-2(tv380) backgrounds; 3 biological replicates

Chain of UniProt Q9U263 (Q9U263 whole entry): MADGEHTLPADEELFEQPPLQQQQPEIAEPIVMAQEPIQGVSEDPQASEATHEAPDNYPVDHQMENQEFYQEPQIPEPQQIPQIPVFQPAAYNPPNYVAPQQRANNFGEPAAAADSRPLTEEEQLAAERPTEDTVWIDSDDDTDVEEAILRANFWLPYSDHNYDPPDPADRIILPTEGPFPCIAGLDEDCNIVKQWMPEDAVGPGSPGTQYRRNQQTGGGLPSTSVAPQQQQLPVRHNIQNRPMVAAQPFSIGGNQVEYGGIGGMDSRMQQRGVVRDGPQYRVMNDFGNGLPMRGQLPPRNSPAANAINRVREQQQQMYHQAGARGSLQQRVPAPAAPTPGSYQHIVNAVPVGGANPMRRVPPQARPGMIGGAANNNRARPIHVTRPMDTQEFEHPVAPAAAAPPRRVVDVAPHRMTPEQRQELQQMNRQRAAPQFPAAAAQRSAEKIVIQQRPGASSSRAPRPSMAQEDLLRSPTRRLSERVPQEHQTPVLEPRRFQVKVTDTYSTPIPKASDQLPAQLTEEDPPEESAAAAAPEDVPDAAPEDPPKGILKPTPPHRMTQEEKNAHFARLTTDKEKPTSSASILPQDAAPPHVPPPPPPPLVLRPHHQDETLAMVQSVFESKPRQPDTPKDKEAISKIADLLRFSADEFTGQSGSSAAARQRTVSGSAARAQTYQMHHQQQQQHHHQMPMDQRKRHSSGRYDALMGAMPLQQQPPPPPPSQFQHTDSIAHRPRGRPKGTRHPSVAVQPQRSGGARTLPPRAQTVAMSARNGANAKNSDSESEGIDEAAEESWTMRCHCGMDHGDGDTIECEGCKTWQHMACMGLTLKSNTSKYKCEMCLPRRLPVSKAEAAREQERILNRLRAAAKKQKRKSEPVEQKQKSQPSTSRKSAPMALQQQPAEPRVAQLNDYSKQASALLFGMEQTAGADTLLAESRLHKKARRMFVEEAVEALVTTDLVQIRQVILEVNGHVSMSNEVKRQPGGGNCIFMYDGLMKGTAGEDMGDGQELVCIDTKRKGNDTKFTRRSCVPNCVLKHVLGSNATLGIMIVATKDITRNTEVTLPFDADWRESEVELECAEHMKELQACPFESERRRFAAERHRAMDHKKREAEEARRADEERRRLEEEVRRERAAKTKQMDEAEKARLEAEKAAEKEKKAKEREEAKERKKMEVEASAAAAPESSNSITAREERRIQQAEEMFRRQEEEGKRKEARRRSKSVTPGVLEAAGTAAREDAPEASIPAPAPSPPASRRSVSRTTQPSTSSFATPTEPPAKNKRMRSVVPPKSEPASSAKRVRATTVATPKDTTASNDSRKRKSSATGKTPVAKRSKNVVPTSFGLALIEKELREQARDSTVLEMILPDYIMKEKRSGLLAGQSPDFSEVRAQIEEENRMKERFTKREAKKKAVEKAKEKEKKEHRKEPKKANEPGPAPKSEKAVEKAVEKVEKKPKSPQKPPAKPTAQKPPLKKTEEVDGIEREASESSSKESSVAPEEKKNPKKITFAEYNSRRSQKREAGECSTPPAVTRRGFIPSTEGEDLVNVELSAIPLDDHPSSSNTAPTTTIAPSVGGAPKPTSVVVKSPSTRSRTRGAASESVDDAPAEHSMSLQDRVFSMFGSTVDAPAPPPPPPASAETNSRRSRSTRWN

reduction of binding compared with WT: 55%
Substance: Histone H3 tri-methylated at lysine 4 (H3K4me3) (from UniProt P08898 1-136) (natural protein)
